The target of assay [1] is human chemokine CCL11 (Eotaxin-1) (human) (UniProt P51671). Kind of assay: native MS; ion mobility MS (Waters Synapt G2 HDMS), nanospray; CCL11 alone at 20 μM in 250 mM ammonium acetate (pH 6.8), native conditions.
For assay [2] the target is unchanged. The assay is described as follows: crystal structure; very preliminary X-ray structure of the CCL11 tetramer bound to Arixtra; de-twinned; Rfactor 17.6%, Rfree 26.7%; not deposited.
Assay [3] has the same target. The assay is described as follows: native MS; ion mobility MS (Waters Synapt G2 HDMS), nanospray; equimolar (1:1) mixture of CCL11 and Arixtra in 250 mM ammonium acetate; oligomers seen unbound and bound to Arixtra; MS/MS of the [tetramer+Arixtra]12+ ion gives monomer and trimer+Arixtra.

Several values for one entry are separate records, joined by “and”; a condition that tells them apart may be missing. Identical values can stand only once.

Sequence of human chemokine CCL11 (Eotaxin-1), P51671 24-97 (natural protein; other documents disagree on this pair) (P51671 24-97): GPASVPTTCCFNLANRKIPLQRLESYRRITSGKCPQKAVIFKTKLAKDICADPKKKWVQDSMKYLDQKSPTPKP

The stoichiometry N is the number of molecules, sites or subunits per partner or assembly. For the substance “human chemokine CCL11 (Eotaxin-1), P51671 24-97 (natural protein; other documents disagree on this pair)”, the stoichiometry N is 4 and 2 in assay [1]; 4 in assay [2]; 2 in assay [3] (Dimer + Arixtra); 4 in assay [3] (Tetramer + Arixtra).

The values above are taken from paper PMC4030970, “Structural Evidence for the Tetrameric Assembly of Chemokine CCL11 and the Glycosaminoglycan Arixtra™” (Biomolecules, 2013).
